One protein from publication PMC3386213 (Molecular Biology of the Cell, 2012) can be followed below.

The data set concerns the molecule itself. Description: cross-linking.

B1: HA-tagged KCTD6 N-terminal BTB domain (domain or fragment)
chain: MDNGDWGYMMTDPVTLNVGGHLYTTSLTTLTRYPDSMLGAMFGGDFPTARDPQGNYFIDRDGPLFRYVLNFLRTSELTLPLDFKEFDLLRKEADFYQIEPLIQCLNDPKPLYPMDTFEEVVELSSTRKLSKYSNPVAVIITQLTITT
Consider B1, for which the stoichiometry N (as a rule, a count of units in the complex or per binding partner) worked out at 2.
